Assay results as given in publication doi:10.1101/2020.12.30.424835 (bioRxiv, 2020).

How the values were obtained:
[1] = biological target: T1, Ctf3 complex (Ctf3, Mcm16, Mcm22), wild type, recombinant (yeast, UniProt Q12748;Q12262;P47167); experiment: fluorescence polarisation
[2] = biological target: T1, Ctf3 complex (Ctf3, Mcm16, Mcm22), wild …; experiment: pull-down

T1 sequence (Q12748 whole entry, chain 1 of 3): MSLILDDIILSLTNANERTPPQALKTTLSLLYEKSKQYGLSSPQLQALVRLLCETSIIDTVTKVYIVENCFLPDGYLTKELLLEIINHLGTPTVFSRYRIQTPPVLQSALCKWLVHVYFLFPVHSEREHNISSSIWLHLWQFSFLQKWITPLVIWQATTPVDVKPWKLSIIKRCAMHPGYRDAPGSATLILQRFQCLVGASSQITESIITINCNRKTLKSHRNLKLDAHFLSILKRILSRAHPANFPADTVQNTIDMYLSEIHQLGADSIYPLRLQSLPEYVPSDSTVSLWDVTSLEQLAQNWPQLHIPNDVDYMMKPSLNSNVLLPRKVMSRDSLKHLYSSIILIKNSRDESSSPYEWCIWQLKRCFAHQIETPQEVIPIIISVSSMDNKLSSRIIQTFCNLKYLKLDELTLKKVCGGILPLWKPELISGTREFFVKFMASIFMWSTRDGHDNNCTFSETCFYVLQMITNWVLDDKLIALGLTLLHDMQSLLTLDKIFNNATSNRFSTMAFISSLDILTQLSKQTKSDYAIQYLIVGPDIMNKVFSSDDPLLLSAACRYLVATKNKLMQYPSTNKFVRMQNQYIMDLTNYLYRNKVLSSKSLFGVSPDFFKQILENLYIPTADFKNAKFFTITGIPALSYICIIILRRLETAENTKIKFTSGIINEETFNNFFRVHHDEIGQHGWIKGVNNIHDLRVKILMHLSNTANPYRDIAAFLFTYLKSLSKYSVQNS
T1 sequence (Q12262 whole entry, chain 2 of 3): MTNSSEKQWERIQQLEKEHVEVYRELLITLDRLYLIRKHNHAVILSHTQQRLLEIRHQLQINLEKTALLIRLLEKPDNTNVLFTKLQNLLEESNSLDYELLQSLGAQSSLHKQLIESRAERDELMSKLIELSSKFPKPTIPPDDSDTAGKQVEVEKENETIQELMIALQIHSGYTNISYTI
T1 sequence (P47167 whole entry, chain 3 of 3): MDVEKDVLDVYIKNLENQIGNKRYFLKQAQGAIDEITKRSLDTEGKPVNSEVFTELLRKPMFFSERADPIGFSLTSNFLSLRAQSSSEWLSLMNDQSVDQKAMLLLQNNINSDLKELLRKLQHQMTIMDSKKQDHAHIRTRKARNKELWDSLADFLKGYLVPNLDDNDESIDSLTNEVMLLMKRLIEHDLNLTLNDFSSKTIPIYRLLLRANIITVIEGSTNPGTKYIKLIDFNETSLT

| Binder | Kd [1] [nM] | binding result [2] |
| --- | --- | --- |
| DDSDVNLIGSS (fITC-AHA on the N-terminus) [FITC-Ulp2-KIM peptide (fITC-AHA-DDSDVNLIGSS; Ulp2-927-937)] | ~900 | – |
| DDSDVALIGSS (domain or fragment) [GST-Ulp2-927-937 N932A] | – | binds |
| ADSDVNLIGSS (domain or fragment) [GST-Ulp2-KIM 1DA-1 (minimal KIM, D927A)] | – | binds |
| DDSDVNLIGSS (domain or fragment) [GST-Ulp2-927-937 (minimal Ulp2-KIM, wild type)] | – | binds |
